Columns and labels:
[1] = biological target: membrane-bound TNFalpha on stably transfected CHO cells (B-220 cells); assay: FACS, anti-CD19-APC beads with TNFalpha-transfected CHO cells (Fig. 4b)
[2] = biological target: membrane-bound TNFalpha on stably transfected CHO cells (B-220 cells); assay: FACS, beads with CHO-TNFα (B220) cells, Sample 2

APC labeled unrelated antibody (anti-CD 19) (coated on beads)
# Events (P4, CHO cells bound to anti-CD19 beads) [1]: 6 events | % Parent (P4, CHO cells bound to anti-CD19 beads) [1]: 0.1% | % Total (P4, CHO cells bound to anti-CD19 beads) [1]: 0.1% | % bound beads [2]: 0.9%

From patent EP3964526A1
